# US20110236427
# B1: recombinant PKCzeta (enzyme, UniProt Q05513 1-592, looked up, species assumed)
# Protein kinase C zeta type: MPSRTGPKMEGSGGRVRLKAHYGGDIFITSVDAATTFEELCEEVRDMCRLHQQHPLTLKWVDSEGDPCTVSSQMELEEAFRLARQCRDEGLIIHVFPSTPEQPGLPCPGEDKSIYRRGARRWRKLYRANGHLFQAKRFNRRAYCGQCSERIWGLARQGYRCINCKLLVHKRCHGLVPLTCRKHMDSVMPSQEPPVDDKNEDADLPSEETDGIAYISSSRKHDSIKDDSEDLKPVIDGMDGIKISQGLGLQDFDLIRVIGRGSYAKVLLVRLKKNDQIYAMKVVKKELVHDDEDIDWVQTEKHVFEQASSNPFLVGLHSCFQTTSRLFLVIEYVNGGDLMFHMQRQRKLPEEHARFYAAEICIALNFLHERGIIYRDLKLDNVLLDADGHIKLTDYGMCKEGLGPGDTTSTFCGTPNYIAPEILRGEEYGFSVDWWALGVLMFEMMAGRSPFDIITDNPDMNTEDYLFQVILEKPIRIPRFLSVKASHVLKGFLNKDPKERLGCRPQTGFSDIKSHAFFRSIDWDLLEKKQALPPFQPQITDDYGLDNFDTQFTSEPVQLTPDDEDAIKRIDQSEFEGFEYINPLLLSTEESV
# Test system: GST-NR2F6 fusion protein, full-length, wild-type
# Sequence (chain, as listed by the source): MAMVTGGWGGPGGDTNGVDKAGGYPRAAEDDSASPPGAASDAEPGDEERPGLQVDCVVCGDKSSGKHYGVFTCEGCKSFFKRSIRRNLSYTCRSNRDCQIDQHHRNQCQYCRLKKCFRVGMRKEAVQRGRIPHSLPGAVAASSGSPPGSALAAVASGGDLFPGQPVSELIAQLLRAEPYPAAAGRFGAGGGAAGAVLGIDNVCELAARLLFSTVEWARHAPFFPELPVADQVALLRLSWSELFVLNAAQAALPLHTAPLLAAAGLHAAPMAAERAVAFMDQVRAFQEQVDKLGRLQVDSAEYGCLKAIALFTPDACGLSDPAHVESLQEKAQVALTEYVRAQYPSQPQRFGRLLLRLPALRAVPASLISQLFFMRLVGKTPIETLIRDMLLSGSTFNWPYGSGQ
protein,measurement,value
B1,"phosphorylation (32P incorporation), in vitro protein kinase assay",(but not PKCzeta or PKA)
